From article PMC12561426, “Dissecting the Interplay Between NRF2 and BACH1 at CsMBEs” (Antioxidants, 2025)
Each block holds one binder with its values, some of them ahead of it.

Tests used:
[1] = target: T1, sMafG^DBD released by TEV from NRF2-sMafGχ or BACH1-sMafGχ (human, UniProt O15525 1-162); assay: native gel or EMSA; chimeric constructs (0-300 nM) titrated on fluorescein-labelled CsMBE dsDNA (3 nM) with TEV and 3C proteases 4 h at 25 C; 150 mM NaCl, 50 mM HEPES pH 7.9, 10% glycerol, 1 mM TCEP, 1 mM DTT, 2 mM MgCl2; 6% non-denaturing gel; heterodimer on DNA; conditions: both partners purified
T1 construct: small Maf protein G (sMafG), human, residues 1-162, the C-terminal half of the chimeric constructs; also called sMafG of NRF2/sMafG and BACH1/sMafG; sMafG^DBDχ; source: E. coli One Shot BL21 Star (DE3), purified as the chimera (HisTrap, heparin, SEC); cut from the chimera by 3C and TEV in the assay; not shown: linker with 6xHis and TEV site, N-terminal, cleaved

[2] = target: T2, sMafG^YbbR (fluorescein-labelled sMafG^DBD-YbbR released by TEV from NRF2-TEV-sMafGχ^YbbR or … (human, UniProt O15525 1-162, fluorescein (CoA-fluorescein conjugate put on the YbbR tag by Sfp))); assay: native gel or EMSA; competition: fluorescein-labelled chimera (150 nM) assembled on Cy5-labelled dsDNA (3 nM) with TEV and 3C 4 h at 25 C, then the DBD competitor (150 nM-1.5 uM) added, overnight at 4 C; 10% non-denaturing gel, Cy5 and fluorescein scans; conditions: both partners purified
T2 construct: small Maf protein G (sMafG), human, residues 1-162, the C-terminal half of the chimeric constructs; source: cut from the chimera by TEV in the assay; not shown: linker with 6xHis and TEV site, N-terminal, cleaved

[3] = target: the molecule itself; assay: SEC-MALS; Superdex 75 increase 10/300, 50 mM HEPES pH 7.9, 2 mM TCEP, 500 mM NaCl, 1-2 mg protein injected; without DNA

B1: BACH1^DBD released by 3C from BACH1-sMafGχ (domain or fragment)
chain: not shown
notes: also called BACH1 of BACH1/sMafG; source: E. coli One Shot BL21 Star (DE3), purified as the chimera (HisTrap, heparin, SEC); cut from the chimera by 3C and TEV in the assay; not shown: linker with 3C site and 6xHis, C-terminal, cleaved
binding result [1]: binds

B2: BACH1^DBD with the uncleaved 6xHis linker (released by TEV from BACH1-TEV-sMafGχ^YbbR) (domain or fragment)
chain: not shown
notes: The linker stays on this chain and gives the supershift; also called BACH1^DBD-6xHis-TEV; BACH1 of BACH1/sMafG^YbbR; source: cut from the chimera by TEV in the assay; not shown: linker with 6xHis (3C site removed, up to the TEV site), C-terminal, kept
binding result [2]: binds

B4: NRF2^DBD with the uncleaved 6xHis linker (released by TEV from NRF2-TEV-sMafGχ^YbbR) (domain or fragment, human, UniProt Q16236 451-567, looked up)
chain: EAHLTRDELRAKALHIPFPVEKIINLPVVDFNEMMSKEQFNEAQLALIRDIRRRGKNKVAAQNCRKRKLENIVELEQDLDHLKDEKEKLLKEKGENDKSLHLLKKQLSTLYLEVFSM
notes: The linker stays on this chain and gives the supershift; also called NRF2^DBD-6xHis-TEV; NRF2 of NRF2/sMafG^YbbR; source: cut from the chimera by TEV in the assay; not shown: linker with 6xHis (3C site removed, up to the TEV site), C-terminal, kept
binding result [2]: binds

More lines, main results first:

binding result [2]: binds
B3: BACH1^DBD (domain or fragment)
chain: not shown
notes: The His-tag is called cleavable; TEV and 3C proteases were present in the EMSA samples; also called BACH1^DBD-3C-6xHis; source: E. coli One Shot BL21 Star (DE3), purified (HisTrap, heparin, SEC)
stoichiometry N [3]: 2

binding result [1]: binds
B5: NRF2^DBD released by 3C from NRF2-sMafGχ (domain or fragment, human, UniProt Q16236 451-567, looked up)
chain: B4 chain
notes: also called NRF2 of NRF2/sMafG; source: E. coli One Shot BL21 Star (DE3), purified as the chimera (HisTrap, heparin, SEC); cut from the chimera by 3C and TEV in the assay; not shown: linker with 3C site and 6xHis, C-terminal, cleaved

binding result [2]: binds
B6: NRF2^DBD (domain or fragment, human, UniProt Q16236 451-567, looked up)
chain: B4 chain
notes: The His-tag is called cleavable; TEV and 3C proteases were present in the EMSA samples; also called NRF2^DBD-3C-6xHis; source: E. coli One Shot BL21 Star (DE3), purified (His-tag purification, heparin)
